{"source": "patent US20240336649", "about": "“SYNTHESIS OF COVALENT PROTEIN DIMERS THAT CAN INHIBIT MYC-DRIVEN TRANSCRIPTION” (MASSACHUSETTS INSTITUTE OF TECHNOLOGY, published 2024)", "key": {"[1]": {"molecular_target": "Myc analog 10 (C-terminal Cys) (UniProt P01106 SEQ:1-82)", "experiment": "EMSA; Myc alone cannot homodimerize", "settings": "protein: synthetic; tags: chemically synthesized; C-terminal cysteine added", "description": "(§1) The three synthetic analogs 10, 11, and 12 can form non-covalent dimers and bind to the target E-box DNA (5′-[…]-3′). […] However, it is not possible to determine which dimeric species form in a solution containing two different monomers. For instance, upon mixing Max (11) and Omomyc (12), three different dimers (Max/Max, Omomyc/Omomyc and Max/Omomyc) can form and potentially bind to DNA (FIG. 18). To assess the activity of these protein complexes in a reliable manner, access to well-defined covalent protein dimers is critical."}, "[2]": {"molecular_target": "Max analog 11 (C-terminal Cys), non-covalent homodimer (UniProt P61244 SEQ:1-80)", "experiment": "EMSA; Max+Max", "settings": "protein: synthetic; tags: chemically synthesized; C-terminal cysteine added; chain copies: 2 stated", "description": "as §1"}, "[3]": {"molecular_target": "MYC monomer (bHLHZ, Example 2) (UniProt P01106 SEQ:1-82)", "experiment": "EMSA; negative control, 4 uM protein, 1 uM DNA", "settings": "protein: synthetic; tags: chemically synthesized by automated flow peptide synthesis", "protocol": "(§2) Biophysical characterization confirmed the folding and DNA-binding activity of the four covalent protein dimers 3, 4, 5, and 6. The dimers were first analyzed by sodium dodecyl sulfate polyacrylamide gel electrophoresis (SDS-PAGE). […] Next an electrophoretic mobility shift assay (EMSA) was performed to determine the dimers' DNA binding activity. At a DNA concentration of 1 μM and protein concentration of 2 μM, all dimers formed complexes with the E-Box DNA, as observed by the shift retardation on the gel.\n(§3) The E-Box DNA probe (2 μM in binding buffer) was heated to 95° C. for 5 minutes and then let cool down to room temperature over 15 minutes for double-strand annealing. Protein dimer (4 μM in binding buffer: MES 10 mM, KCl 150 mM, MgCl₂ 1 mM, TCEP 1 mM, glycerol 10%, pH=6.5) was added to the DNA (final concentrations: 2 μM protein and 1 μM DNA) and the mixture was incubated for 1 h at room temperature. During the incubation, a 10% polyacrylamide gel was prerun (1 h, 4° C., 100 V) in 1× TBE buffer. After that time, DNA protein mixture (20 μL) was mixed with 6× DNA Loading Dye (4 μL)) and loaded on the gel, which was run at 75 V, for 90 min at 4° C. The gel was washed with water for 20 seconds and then stained with 0.02% ethidium bromide in 1xTBE buffer for 15 min at room temperature. Bands were visualized on a Biorad Gel imager."}, "[4]": {"molecular_target": "Myc-Max 16 (S-aryl linked covalent dimer) (UniProt P01106;P61244 SEQ:1-82,SEQ:1-80)", "experiment": "EMSA", "settings": "protein: synthetic; tags: chemically synthesized; C-terminal cysteines crosslinked by dithiobenzene"}, "[5]": {"molecular_target": "Omomyc-Max 17 (S-aryl linked covalent dimer) (UniProt P01106;P61244 SEQ:1-90,SEQ:1-80)", "experiment": "EMSA", "settings": "protein: synthetic; tags: chemically synthesized; C-terminal cysteines crosslinked by dithiobenzene"}, "[6]": {"molecular_target": "Myc-Myc 13 (S-aryl linked covalent dimer) (UniProt P01106;P01106 SEQ:1-82,SEQ:1-82)", "experiment": "EMSA; negative control", "settings": "protein: synthetic; tags: chemically synthesized; C-terminal cysteines crosslinked by dithiobenzene; chain copies: 2 stated"}, "[7]": {"molecular_target": "Max-Max 14 (S-aryl linked covalent dimer) (UniProt P61244;P61244 SEQ:1-80,SEQ:1-80)", "experiment": "BLI", "settings": "protein: synthetic; tags: chemically synthesized; C-terminal cysteines crosslinked by dithiobenzene; chain copies: 2 stated"}, "[8]": {"molecular_target": "Omomyc analog 12 (C-terminal Cys), non-covalent homodimer (UniProt P01106 SEQ:1-90)", "experiment": "EMSA; Omomyc+Omomyc", "settings": "protein: synthetic; tags: chemically synthesized; C-terminal cysteine added; chain copies: 2 stated", "description": "as §1"}, "[9]": {"molecular_target": "MYC-MAX covalent heterodimer 5 (lysine-linked) (UniProt P01106;P61244 SEQ:1-82,SEQ:1-80)", "experiment": "EMSA; 2 uM protein, 1 uM DNA; MES 10 mM, KCl 150 mM, MgCl2 1 mM, pH 6.5, RT", "settings": "protein: synthetic; tags: chemically synthesized; C-termini linked via Lys-betaAla-Lys linker; Boc-Gly coupled as last residue of MAX during synthesis", "protocol": "as §2, §3"}, "[10]": {"molecular_target": "Omomyc-Omomyc covalent homodimer 4 (lysine-linked) (UniProt P01106;P01106 SEQ:1-90,SEQ:1-90)", "experiment": "EMSA; 2 uM protein, 1 uM DNA; MES 10 mM, KCl 150 mM, MgCl2 1 mM, pH 6.5, RT", "settings": "protein: synthetic; tags: chemically synthesized; C-termini linked via Lys-betaAla-Lys linker; chain copies: 2 stated", "protocol": "as §2, §3"}, "[11]": {"molecular_target": "Omomyc-MAX covalent heterodimer 6 (lysine-linked) (UniProt P01106;P61244 SEQ:1-90,SEQ:1-80)", "experiment": "EMSA; 2 uM protein, 1 uM DNA; MES 10 mM, KCl 150 mM, MgCl2 1 mM, pH 6.5, RT", "settings": "protein: synthetic; tags: chemically synthesized; C-termini linked via Lys-betaAla-Lys linker; Boc-Gly coupled as last residue of MAX during synthesis", "protocol": "as §2, §3"}}}
{"binder": "E-box DNA probe (22 bp) (dsDNA) DNA 1: CCGGCTGACACGTGGTATTAAT DNA 2: ATTAATACCACGTGTCAGCCGG", "values": [{"measurement": "binding result", "setting": "[1]", "result": "no binding"}, {"measurement": "binding result", "setting": "[2]", "result": "binds"}, {"measurement": "binding result", "setting": "[3]", "result": "no binding"}, {"measurement": "binding result", "setting": "[4]", "result": "binds"}, {"measurement": "binding result", "setting": "[5]", "result": "binds"}, {"measurement": "binding result", "setting": "[6]", "result": "no binding"}, {"measurement": "Kd", "setting": "[7]", "result": 50, "unit": "nM"}, {"measurement": "binding result", "setting": "[8]", "result": "binds"}, {"measurement": "binding result", "setting": "[9]", "result": "binds"}, {"measurement": "binding result", "setting": "[10]", "result": "binds"}, {"measurement": "binding result", "setting": "[11]", "result": "binds"}]}
